In one series the target is T1, SoPrpF (Shewanella oneidensis, UniProt Q8EJW4).
T1 construct: gene prpF; recombinant from pPRP196 (pTEV4, N-terminal TEV-cleavable H6 tag), purified as in earlier work; homodimer
Kind of series: HPLC time course; coupled aconitase assay. The note with it: substrate is the SoAcnD product of 2-methylcitrate; Tris-HCl 50 mM pH 8.0, KCl 100 mM. Type of series: biochemical.

In a further series the target is T2, SePrpD (Salmonella enterica, UniProt P74840).
T2 construct: gene prpD; recombinant, His-tagged, purified from E. coli
T2 sequence (P74840 1-483): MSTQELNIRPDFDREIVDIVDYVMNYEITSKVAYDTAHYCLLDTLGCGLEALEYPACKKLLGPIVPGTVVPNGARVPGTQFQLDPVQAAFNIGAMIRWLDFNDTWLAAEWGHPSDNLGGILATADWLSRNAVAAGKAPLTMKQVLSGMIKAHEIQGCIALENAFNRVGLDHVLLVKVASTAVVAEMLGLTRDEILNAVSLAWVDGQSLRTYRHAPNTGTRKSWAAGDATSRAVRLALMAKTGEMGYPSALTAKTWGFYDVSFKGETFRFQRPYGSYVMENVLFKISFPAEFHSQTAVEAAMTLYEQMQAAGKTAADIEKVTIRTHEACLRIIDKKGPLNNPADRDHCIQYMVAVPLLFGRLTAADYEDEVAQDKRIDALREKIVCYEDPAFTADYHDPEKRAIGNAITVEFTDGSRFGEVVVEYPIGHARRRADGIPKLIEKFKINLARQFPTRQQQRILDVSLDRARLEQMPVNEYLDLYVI
Kind of series: HPLC of reaction products. Type of series: biochemical. Particulars: 5 mM substrate, Tris-HCl 90 mM pH 8.0, 37°C, 1.5 h.

Series [1] has as its system C/C(C(=O)O)=C(\CC(=O)O)C(=O)O. Kind of series: purified protein. Particulars: Tris-HCl 50 mM pH 8.0, KCl 100 mM, 37°C, Fe/S-reactivated enzyme.
Series [2] concerns the molecule itself. The series can be described thus: crystal structure; hanging drop vapor diffusion, MES 100 mM pH 6.0, sodium malonate 136 mM, PEG 4K 15% w/v, room temperature; space group P2(1), two chains in the asymmetric unit related by a non-crystallographic twofold axis; 1.22 Å.
Substrate in the series “purified protein”: O=C(O)/C=C(/CC(=O)O)C(=O)O
The series can be described thus: purified protein. Particulars: Tris-HCl 50 mM pH 8.0, KCl 100 mM, 37°C, Fe/S-reactivated enzyme.

T1 sequence (Q8EJW4 whole entry): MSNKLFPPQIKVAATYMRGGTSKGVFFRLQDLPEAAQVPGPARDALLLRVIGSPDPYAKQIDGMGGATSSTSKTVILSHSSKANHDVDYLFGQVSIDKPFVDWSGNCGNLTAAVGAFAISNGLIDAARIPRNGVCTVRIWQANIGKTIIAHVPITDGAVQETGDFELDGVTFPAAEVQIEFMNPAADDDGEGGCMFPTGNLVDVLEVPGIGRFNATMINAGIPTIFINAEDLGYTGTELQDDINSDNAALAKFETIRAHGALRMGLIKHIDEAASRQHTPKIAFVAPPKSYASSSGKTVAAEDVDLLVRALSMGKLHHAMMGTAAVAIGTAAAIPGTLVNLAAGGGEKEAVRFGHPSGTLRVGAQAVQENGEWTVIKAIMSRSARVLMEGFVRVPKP

On to `C/C(C(=O)O)=C(\CC(=O)O)C(=O)O` [2-methyl-cis-aconitate], for which, on SoPrpF, the “HPLC time course; coupled aconitase assay” value is recorded as “SoPrpF converted the SoAcnD reaction product into 2-methyl-cis-aconitate over time”.
As to `CC(C(=O)O)C(O)(CC(=O)O)C(=O)O` (stereo not shown) [2-methylcitrate], the “HPLC of reaction products” value on SePrpD is “SePrpD synthesized 2-methyl-cis-aconitate from 2-methylcitrate”.
For orientation: Km means the concentration of substrate that gives half-maximal velocity. Usually Vmax stands for the rate approached at saturating substrate. For orientation: kcat means the number of substrate molecules converted per active site and unit of time at saturation. In general, kcat/Km refers to the turnover number divided by the Michaelis constant. Consider “SeAcnA (Salmonella enterica subsp. enterica serovar Typhimurium str. LT2)”, for which, in series [1], the Michaelis-Menten constant (Km) amounted to 210 ± 35 µM, the Vmax was 50 µM/min, the kcat turned out to be 11.8 ± 0.7 s⁻¹ and the kcat/Km worked out at 56700 M⁻¹ s⁻¹.
Take “SeAcnB (Salmonella enterica subsp. enterica serovar Typhimurium str. LT2)”: in series [1], the Michaelis constant (Km) came to 208 ± 39 µM, the Vmax was 10 µM/min, the kcat was determined as 6.6 ± 0.667 s⁻¹ and the kcat/Km turned out to be 31700 M⁻¹ s⁻¹.

B1: Shewanella oneidensis MR-1 PrpF K73E variant (SoPrpF^K73E) (enzyme)
chain: MSNKLFPPQIKVAATYMRGGTSKGVFFRLQDLPEAAQVPGPARDALLLRVIGSPDPYAKQIDGMGGATSSTSETVILSHSSKANHDVDYLFGQVSIDKPFVDWSGNCGNLTAAVGAFAISNGLIDAARIPRNGVCTVRIWQANIGKTIIAHVPITDGAVQETGDFELDGVTFPAAEVQIEFMNPAADDDGEGGCMFPTGNLVDVLEVPGIGRFNATMINAGIPTIFINAEDLGYTGTELQDDINSDNAALAKFETIRAHGALRMGLIKHIDEAASRQHTPKIAFVAPPKSYASSSGKTVAAEDVDLLVRALSMGKLHHAMMGTAAVAIGTAAAIPGTLVNLAAGGGEKEAVRFGHPSGTLRVGAQAVQENGEWTVIKAIMSRSARVLMEGFVRVPKP
notes: PrpF (2-methylaconitate isomerase) of Shewanella oneidensis MR-1, with the substitution K73E; prpF+ cloned into pTEV4 (template pPRP196); also called Apo-SoPrpF^K73E; prpF258; source: E. coli, plasmid pPRP221 (pTEV4), IPTG-induced, purified (Maxwell 16 system)
For B1, in series [2], the binding result is given as “binds”.

B2: SeAcnA (Salmonella enterica subsp. enterica serovar Typhimurium str. LT2) (protein)
chain: MSSTLREASKDTLQAKDKTYHYYSLPLAAKSLGDIARLPKSLKVLLENLLRWQDGESVTDEDIQALAGWLKNAHADREIAWRPARVLMQDFTGVPAVVDLAAMREAVKRLGGDTSKVNPLSPVDLVIDHSVTVDHFGDDDAFEENVRLEMERNHERYMFLKWGKQAFSRFSVVPPGTGICHQVNLEYLGKAVWSELQDGEWIAYPDSLVGTDSHTTMINGLGVLGWGVGGIEAEAAMLGQPVSMLIPDVVGFKLTGKLREGITATDLVLTVTQMLRKHGVVGKFVEFYGDGLDSLPLADRATIANMSPEYGATCGFFPIDAITLEYMRLSGRSDDLVELVETYAKAQGMWRNPGDEPVFTSTLELDMGDVEASLAGPKRPQDRVALGDVPKAFAASAELELNTAQRDRQPVDYTMNGQPYQLPDGAVVIAAITSCTNTSNPSVLMAAGLLAKKAVTLGLKRQPWVKASLAPGSKVVSDYLAQAKLTPYLDELGFNLVGYGCTTCIGNSGPLPEPIETAIKKGDLTVGAVLSGNRNFEGRIHPLVKTNWLASPPLVVAYALAGNMNINLATDPLGYDRKGDPVYLKDIWPSAQEIARAVELVSSDMFRKEYAEVFEGTEEWKSIQVESSDTYGWQSDSTYIRLSPFFDEMQAQPAPVKDIHGARILAMLGDSVTTDHISPAGSIKPDSPAGRYLQNHGVERKDFNSYGSRRGNHEVMMRGTFANIRIRNEMLPGVEGGMTRHLPGTEAMSIYDAAMLYQQEKTPLAVIAGKEYGSGSSRDWAAKGPRLLGIRVVIAESFERIHRSNLIGMGILPLEFPQGVTRKTLGLTGEEVIDIADLQNLRPGATIPVTLTRSDGSKETVPCRCRIDTATELTYYQNDGILHYVIRNMLN
Consider B2, for which, in the series “purified protein”, the Michaelis-Menten constant (Km) was 22 ± 2 µM, the Vmax is 86 µM/min, the kcat came to 62.3 ± 1.45 s⁻¹ and the kcat/Km was found to be 2.83e+06 M⁻¹ s⁻¹.

B3: SeAcnB (Salmonella enterica subsp. enterica serovar Typhimurium str. LT2) (protein)
chain: MLEEYRKHVAERAAQGIVPKPLDATQMAALVELLKTPPVGEEEFLLDLLINRVPPGVDEAAYVKAGFLAAVAKGDTTSPLVSPEKAIELLGTMQGGYNIHPLIDALDDAKLAPIAAKALSHTLLMFDNFYDVEEKAKAGNEYAKQVMQSWADAEWFLSRPPLAEKITVTVFKVTGETNTDDLSPAPDAWSRPDIPLHAQAMLKNAREGIEPDQPGVVGPIKQIEALQKKGYPLAYVGDVVGTGSSRKSATNSVLWFMGDDIPNVPNKRGGGLCLGGKIAPIFFNTMEDAGALPIEVDVSNLNMGDVIDVYPYKGEVRNHETGELLATFELKTDVLIDEVRAGGRIPLIIGRGLTTKAREALGLPHSDVFRQAKDVAESSRGFSLAQKMVGRACGVKGIRPGAYCEPKMTSVGSQDTTGPMTRDELKDLACLGFSADLVMQSFCHTAAYPKPVDVTTHHTLPDFIMNRGGVSLRPGDGVIHSWLNRMLLPDTVGTGGDSHTRFPIGISFPAGSGLVAFAAATGVMPLDMPESVLVRFKGKMQPGITLRDLVHAIPLYAIKQGLLTVEKKGKKNIFSGRILEIEGLPDLKVEQAFELTDASAERSAAGCTIKLNKEPIVEYLTSNIVLLKWMIAEGYGDRRTLERRIQGMEKWLADPQLLEADADAEYAAVIDIDLADIKEPILCAPNDPDDARLLSDVQGEKIDEVFIGSCMTNIGHFRAAGKLLDNHKGQLPTRLWVAPPTRMDAAQLTEEGYYSVFGKSGARIEIPGCSLCMGNQARVADGATVVSTSTRNFPNRLGTGANVFLASAELAAVAALIGKLPTPEEYQTYVAQVDKTAVDTYRYLNFDQLSQYTEKADGVIFQTAV
Turning to B3, in the series “purified protein”, the Michaelis-Menten constant (Km) was determined as 17 ± 3 µM, the maximal velocity (Vmax) was found to be 21 µM/min, the kcat was determined as 34.9 ± 1.67 s⁻¹ and the kcat/Km was 2.05e+06 M⁻¹ s⁻¹.

(Values after PMC5690661, “The PrpF protein of Shewanella oneidensis MR-1 catalyzes the isomerization of 2-methyl-cis-aconitate during the catabolism of propionate via the AcnD-dependent 2-methylcitric acid cycle” (PLoS ONE, 2017).)
